Here are results for four molecules from patent US20020142457A1, “Cell having the potentiality of differentiation into cardiomyocytes” (priority 1999, published 2002).

Holding throughout (format): cell-based, mouse
Test [1] deals with Nkx2.5/Csx and GATA4 co-forced expressing bone marrow cells (BMSC-Nkx2.5-GATA4). The experiment in a line: Quantitative PCR of genes expressed in myotubes from BMSC-Nkx2.5-GATA4. The conditions noted are these: BMSC-Nkx2.5-GATA4, 5-aza-C 3 μM, cytokine 10 ng/ml. The text has this: From the myotubes thus obtained, RNAs were collected and genes expressed in the myotubes were subjected to quantitative PCR analysis using the synthetic oligonucleotides represented by SEQ ID NOS:71 to 78.

The test system is the same in test [2]. The experiment in a line: Differentiation of BMSC-Nkx2.5-GATA4 with cytokines, phase-contrast microscope. The note with it: cytokine 10 ng/ml, four weeks; for cells differentiated into myotubes: BMSC-Nkx2.5-GATA4, 5-aza-C 3 μM in all dishes; for beating cardiomyocytes: BMSC-Nkx2.5-GATA4, 5-aza-C 3 μM. The protocol: The Nkx2.5/Csx and GATA4 co-forced expressing bone marrow cells (BMSC-Nkx2.5-GATA4) having the potential to differentiate into cardiomyocytes were plated into a 60-mm culture dish at a density of 2×10^4 cells/ml and cultured at 33° C. in a 5% CO2-incubator.
On the next day, 5-aza-C was added to the culture medium to give a final concentration of 3 μM. Furthermore, 5 treatments differing from each other were carried out by adding FGF-8 to give a final concentration of 10 ng/ml (culture dish I); adding ET-1 to give a final concentration of 10 ng/ml (culture dish J); adding midkine to give a final concentration of 10 ng/ml (culture dish K); adding BMP4 to give a final concentration of 10 ng/ml (culture dish L); and adding nothing (culture dish M), followed by culturing.
On the next day, the medium was replaced with a fresh medium to eliminate 5-aza-C. Then, FGF-8 was added to the culture dish I to give a final concentration of 10 ng/ml; ET-1 was added to the culture dish J to give a final concentration of 10 ng/ml; midkine was added to the culture dish K to give a final concentration of 10 ng/ml; and BMP4 was added to the culture dish L to give a final concentration of 10 ng/ml, followed by culturing. Two and four days thereafter, furthermore, the medium was replaced, and the FGF-8, ET-1, midkine or BMP4 was added.
As a result, about 30% of the cells in the culture dish containing 5-aza-C alone were converted into myotubes, while about 50% of the cells in the culture dishes containing FGF-8, ET-1, midkine or BMP4 differentiated into myotubes respectively. On the other hand, the addition of FGF-8, ET-1, midkine or BMP4 caused no increase in beating cardiomyocytes.

For test [3], the system named is bone marrow cell (BMSC-MesP1). Nature of the test: Quantitative PCR of genes expressed in myotube-like cells from BMSC-MesP1. The conditions noted are these: BMSC-MesP1, 5-aza-C 3 μM, cytokine 10 ng/ml. The protocol:
Next, RNA was recovered from the thus obtained myotube-like cells, and genes expressing in the myotube-like cells were analyzed by quantitative PCR using the synthetic oligonucleotides shown in SEQ ID NOS:71 to 78. As a result, expression of ANP as a gene specific for a myocardium was accelerated by the forced expression of MesP1.

In test [4] the test system is bone marrow cell (BMSC-MesP1). Nature of the test: Differentiation of BMSC-MesP1 with cytokines, phase contrast microscope. The conditions noted are these: BMSC-MesP1, 5-aza-C 3 μM; cytokine 10 ng/ml; four weeks. The protocol:
A mouse bone marrow-derived pluripotent stem cell (BMSC-MesP1) having the potential to differentiate into cardiomyocytes in which the MesP1 gene was forced-expressed was obtained using a retrovirus vector in the same manner as in Example 6, and then the differentiation was induced to examine efficiency of differentiation into cardiomyocytes.
The bone marrow cell (BMSC-MesP1) having the potential to differentiate into cardiomyocytes in which MesP1 was forced expressed was plated into a 60-mm culture dish in a density of 2×10^4 cells/ml and cultured at 33° C. in a 5% CO2-incubator. On the next day, 5-aza-C was added to the culture medium to give a final concentration of 3 μM, followed by culturing under five different conditions, namely (i) addition of FGF-8 to give a final concentration of 10 ng/ml (culture dish N), (ii) addition of ET-1 to give a final concentration of 10 ng/ml (culture dish P), (iii) addition of Midkine to give a final concentration of 10 ng/ml (culture dish Q), (iv) addition of BMP4 to give a final concentration of 10 ng/ml (culture dish R), and (v) no addition (culture dish S).
On the next day, the medium was exchanged with a fresh medium in order to eliminate 5-aza-C from the medium, and then the culturing was continued by adding FGF-8 to the culture dish N to give a final concentration of 10 ng/ml, ET-1 to the culture dish P to give a final concentration of 10 ng/ml, Midkine to the culture dish Q to give a final concentration of 10 ng/ml and BMP4 to the culture dish R to give a final concentration of 10 ng/ml. Two days and 4 days thereafter, the medium exchange and addition of FGF-8, ET-1, Midkine or BMP4 were carried out similarly.
Four weeks after the addition of 5-aza-C, morphology of the cells was observed under a phase contrast microscope. As a result, the number of myotube-like cells was not changed greatly by the forced expression of MesP1. In addition, about 50% of the cells became myotube-like cells in the culture dish to which FGF-8, ET-1, Midkine or BMP4 had been added.

Ends that are not written are not given here.

On to “ET-1: endothelin 1, cytokine (CSCSSLMDKECVYFCHLDIIW; ends and bridges not checked; cysteine pairing not given here; UniProt P05305 53-73, looked up)”, for which the “expression of cTnI and ANP promoted by forced expression of Nkx2.5/Csx and GATA4” value (shortened to “expression of cTnI and ANP promoted”) in test [1] is listed as “did not further promote”. In test [2], the “cells differentiated into myotubes” value is given as “about 50%” and the beating cardiomyocytes entry was “no increase”. In test [3], the “expression of ANP accelerated by the forced expression of MesP1” value (“expression of ANP accelerated” for short) is on record as “did not further accelerate”. Also, the “cells became myotube-like cells” value in test [4] was “about 50%”.

B1: midkine: cytokine, amino acid sequence SEQ ID NO:68 (protein, listed as Homo sapiens)
chain: MQHRGFLLLTLLALLALTSAVAKKKDKVKKGGPGSECAEWAWGPCTPSSKDCGVGFREGTCGAQTQRIRCRVPCNWKKEFGADCKYKFENWGACDGGTGTKVRQGTLKKARYNAQCQETIRVTKPCTPKTKAKAKAKKGKGKD
modifications: CDS (1)..(432)
In the case of B1, the “expression of cTnI and ANP promoted” value in test [1] is recorded as “did not further promote”. Also, in test [2], the “cells differentiated into myotubes” value is recorded as “about 50%” and the beating cardiomyocytes entry is reported as “no increase”. In addition, the “expression of ANP accelerated” value in test [3] was “did not further accelerate”. Moreover, in test [4], the “cells became myotube-like cells” value is “about 50%”.

B2: BMP4: bone morphogenic protein 4, cytokine (protein, UniProt P12644 293-408, looked up)
Bone morphogenetic protein 4: SPKHHSQRARKKNKNCRRHSLYVDFSDVGWNDWIVAPPGYQAFYCHGDCPFPLADHLNSTNHAIVQTLVNSVNSSIPKACCVPTELSAISMLYLDEYDKVVLKNYQEMVVEGCGCR
With B2, in test [1], the “expression of cTnI and ANP promoted” value was “did not further promote”. Moreover, in test [2], the “cells differentiated into myotubes” value was “about 50%” and the beating cardiomyocytes result is recorded as “no increase”. Moreover, the “expression of ANP accelerated” value in test [3] is “did not further accelerate”. In addition, the “cells became myotube-like cells” value in test [4] is given as “about 50%”.

B3: FGF-8: fibroblast growth factor 8, cytokine (protein, UniProt P55075 23-233, looked up)
Fibroblast growth factor 8: QEGPGRGPALGRELASLFRAGREPQGVSQQHVREQSLVTDQLSRRLIRTYQLYSRTSGKHVQVLANKRINAMAEDGDPFAKLIVETDTFGSRVRVRGAETGLYICMNKKGKLIAKSNGKGKDCVFTEIVLENNYTALQNAKYEGWYMAFTRKGRPRKGSKTRQHQREVHFMKRLPRGHHTTEQSLRFEFLNYPPFTRSLRGSQRTWAPEPR
Regarding B3, the “expression of cTnI and ANP promoted” value in test [1] was “did not further promote”. In test [2], the “cells differentiated into myotubes” value is reported as “about 50%” and the beating cardiomyocytes result was “no increase”. Also, in test [3], the “expression of ANP accelerated” value was “did not further accelerate”. Moreover, in test [4], the “cells became myotube-like cells” value is recorded as “about 50%”.
